# From article PMC5852081, “The preprophase band-associated kinesin-14 OsKCH2 is a processive minus-end-directed microtubule motor” (Nature Communications, 2018)
# Assays:
# [1] = biological target: GFP-OsKCH2(289–767)^T (not stated | O. sativa); experiment: single-molecule photobleaching (TIRF microscopy); GFP-tagged motors bound to surface-immobilized microtubules in the single-molecule motility buffer without ATP, room temperature; photobleaching steps counted
# [2] = biological target: GFP-OsKCH2(289–767) (O. sativa); experiment: as above
# [3] = biological target: GFP-OsKCH2(289–767) (O. sativa); experiment: sucrose gradient centrifugation; 5–20% sucrose gradient in BRB80 with 25 mM KCl, 150,000 x g, 4 °C, 18 h; fractions by SDS-PAGE; standards CA, BSA, AD, amylase, apoferritin
# [4] = biological target: GFP-OsKCH1/KCH2 (O. sativa) (UniProt Q0IMS9); experiment: single-molecule photobleaching (TIRF microscopy); GFP-tagged motors bound to surface-immobilized microtubules in the single-molecule motility buffer without ATP, room temperature; photobleaching steps counted
# [5] = biological target: GFP-OsKCH2(289–720) (O. sativa); experiment: sucrose gradient centrifugation; 5–20% sucrose gradient in BRB80 with 25 mM KCl, 150,000 x g, 4 °C, 18 h; fractions by SDS-PAGE; standards CA, BSA, AD, amylase, apoferritin
# [6] = biological target: the molecule itself; experiment: not stated; oligomeric state of GFP-OsKCH1(292–744), Supplementary Fig. 5d, e; legend not shown
molecule,measurement,setting,value
GFP-OsKCH2(289–767)^T (domain or fragment),stoichiometry N,[1],4
GFP-OsKCH2(289–767) (domain or fragment),stoichiometry N,[2],2
same,stoichiometry N,[3],2
GFP-OsKCH1/KCH2 (from UniProt Q0IMS9 292-705) (domain or fragment),stoichiometry N,[4],2
GFP-OsKCH2(289–720) (domain or fragment),stoichiometry N,[5],2
"GFP-OsKCH1(292–744) (domain or fragment, O. sativa, UniProt Q0IMS9 292-744, looked up, codon-optimized synthetic cDNA; source: E. coli BL21 Rosetta (DE3), purified (Talon beads); not shown: GFP, N-terminal, kept) GEVKQFQLEAQTNFDVQQKQIQELKGALSFVKSGMEQLRLQYSEEFAKLGKHFYTLSNAASSYHKVLEENRKLYNQIQDLKGNIRVYCRVRPFLPGHRSLSSSVADTEERTITIITPTKYGKDGCKSFSFNRVFGPASTQEEVFSDMQPLIRSVLDGFNVCIFAYGQTGSGKTFTMSGPKVLTEESLGVNYRALNDLFNIKAQRKGTIDYEISVQMIEIYNEQVRDLLQDGGNRRLEIRNTPQKGLAVPDASIVPVTSTADVVELMNQGQKNRAVGSTAINDRSSRSHSCLSVHVQGKYLTSGAMLRGCMHLVDLAGSERVDKSEVVGDRLKEAQYINKSLSALGDVIASLAQKNSHVPYRNSKLTQLLQDSLGGQAKTLMFVHVSPELDAVGETISTLKFAERVASVELGAAKANKEGSEVRELKEQIATLKAALAKKEGEPENIQSTQSSP",stoichiometry N,[6],2
